According to article PMC11264168:

Legend:
[1] = target: SyB-Cph1(GAF-PHY) Arg101-Ala mutant (Synechococcus sp. JA-2-3B'a(2-13)); test: SEC; arginine-to-alanine mutants; data not shown
[2] = target: SyB-Cph1(GAF-PHY) Arg111-Ala mutant (Synechococcus sp. JA-2-3B'a(2-13)); test: SEC; arginine-to-alanine mutants; data not shown
[3] = target: SyB-Cph1(GAF-PHY) Arg133-Ala mutant (Synechococcus sp. JA-2-3B'a(2-13)); test: SEC; arginine-to-alanine mutants; data not shown
[4] = target: SyB-Cph1(GAF-PHY), the GAF-PHY fragment (photo-sensing module) of the PAS-less phytochrome SyB-Cph1, residues 1-421, assembled with phycocyanobilin, as Pr (Synechococcus sp. JA-2-3B'a(2-13)); test: SEC; Pr in darkness, 30 mM Tris-HCl (pH 8.0), Superdex 200 Increase 10/300 GL, 0.5 ml/min, gel filtration mass standards

For “SyB-Cph1(GAF-PHY) Arg101-Ala mutant (domain or fragment)”, the stoichiometry N [1] was 2.

“SyB-Cph1(GAF-PHY) Arg111-Ala mutant (domain or fragment)” showed a stoichiometry N [2] of 2.

For “SyB-Cph1(GAF-PHY) Arg133-Ala mutant (domain or fragment)”, the stoichiometry N [3] was 2.

With “SyB-Cph1(GAF-PHY), the GAF-PHY fragment (photo-sensing module) of the PAS-less phytochrome SyB-Cph1, residues 1-421, assembled with phycocyanobilin, as Pr (domain or fragment)” the stoichiometry N [4] was 2.
